Experimental data taken from patent US20200283523A1 (WUXI BIOLOGICS IRELAND, published 2020).

How the values were obtained:
human CD19 = biological target: T1, human CD19 (human, UniProt P15391 20-556); assay: flow cytometry affinity on Ramos cells, bound/free versus bound plot; Ramos cells, CD19
T1 construct: whole, on cells; also called CD19 on Ramos cells; CD19 on Raji cells
T1 sequence (looked up): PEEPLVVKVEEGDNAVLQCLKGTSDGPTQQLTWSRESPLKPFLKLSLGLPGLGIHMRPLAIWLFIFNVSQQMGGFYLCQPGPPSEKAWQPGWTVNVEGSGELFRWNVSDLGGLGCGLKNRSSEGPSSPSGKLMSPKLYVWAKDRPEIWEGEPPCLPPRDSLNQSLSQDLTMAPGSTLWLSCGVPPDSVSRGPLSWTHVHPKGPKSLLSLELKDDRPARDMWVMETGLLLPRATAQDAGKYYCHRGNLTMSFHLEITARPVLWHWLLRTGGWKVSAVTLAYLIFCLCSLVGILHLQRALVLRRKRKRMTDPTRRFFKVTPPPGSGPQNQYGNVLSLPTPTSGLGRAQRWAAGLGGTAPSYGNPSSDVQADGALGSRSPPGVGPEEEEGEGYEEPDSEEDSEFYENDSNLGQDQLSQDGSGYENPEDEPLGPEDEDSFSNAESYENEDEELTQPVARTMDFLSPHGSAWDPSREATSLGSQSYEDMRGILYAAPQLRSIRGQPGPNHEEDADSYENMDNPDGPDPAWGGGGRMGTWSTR
Protocol: (§1) Binding affinity to CD3 and CD19 was determined by flow cytometry using Jurkat and Ramos cells, respectively. The cells were transferred in to 96-well U-bottom plates (BD) at a density of 5×10⁴ cells/well. Antibodies to be tested were 1:2-fold serially diluted in 1% 1×PBS/1% BSA and incubated with cells at 4° C. for 1 hr. Then, the plates were centrifuged at 1500 rpm for 4 mins and the supernatant discarded. The secondary antibody, Alexa647 conjugated goat anti-human IgG Fc (Jackson, Cat #109-605-098) or FITC conjugated goat anti-His (Bethyl, Cat # A190-113F) was added to re-suspended cells and incubated at 4° C. in the dark for 30 min. The cells were washed once and re-suspended in 100 μL 1×PBS/1% BSA. Fluorescence intensity was measured by flow cytometry (BD Canto II) and analyzed by FlowJo. Fluorescence intensity was converted to bound molecules/cell based on the quantitative beads (Quantum™ MESF Kits, Bangs Laboratories). KD was calculated by Graphpad Prism5.
(§2) The binding affinity of W3438-T3U4.E17-1.uIgG4.SP to human CD19 and CD3 was tested on Ramos and Jurkat cells by flow cytometry. The bound IgG/free IgG versus bound IgG was plotted in FIGS. 14A-14B.

[1] = biological target: T2, Cynomolgus CD3 epsilon protein (cynomolgus monkey, UniProt Q95LI5 22-117); assay: ELISA on coated cynomolgus CD3 epsilon protein
T2 construct: extracellular domain; The method names a bought protein (Acro # CDE-05226), the result names W331-cynoProl.ECD.His; also called W331-cynoProl.ECD.His; Acro # CDE-05226; not shown: His tag by the construct's name
T2 sequence (looked up): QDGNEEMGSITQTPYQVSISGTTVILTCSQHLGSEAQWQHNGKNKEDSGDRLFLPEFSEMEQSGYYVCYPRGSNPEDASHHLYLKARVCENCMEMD
Protocol: The binding of the CD3×CD19 bispecific antibody to cynomolgus CD3 were tested by protein binding ELISA. 96-well high protein binding ELISA plates (Nunc MaxiSorp, ThermoFisher, Thermo-442404) were coated overnight at 4° C. with 100 ul of 1 μg/ml Cynomolgus CD3 epsilon protein (Acro, # CDE-05226) in Carbonate-bicarbonate buffer (20 mM Na2CO3, 180 mM NaHCO₃, PH9.2). All wells were washed one time with 300 μL per well of PBS/0.5% Tween-20 (v/v). The wells were then blocked for one hour at room temperature with 200 μL per well of PBS/2% BSA (BOVOGEN, # BSAS) and washed three times with 300 μL per well of PBS/0.5% Tween-20 (v/v). For the primary antibody binding, CD3×CD19 bispecific antibody serially diluted in PBS/2% BSA were added to the relevant wells and incubated at room temperature for two hours. Plates were washed three times like before prior to the addition of 100 ul of 100 ng/ml secondary antibody Goat-anti-human IgG Fc-HRP (Bethyl, # A80-304P). Plates were incubated at room temperature for one hour, followed by six washes as described above. […] The extent of bispecific antibody binding to cynomolgus CD3 was determined by measuring the OD450 absorbance using the SpectraMax® M5e microplate reader. […]

human CD3 = biological target: T3, human CD3 (human, UniProt P07766 23-207); assay: flow cytometry affinity on Jurkat cells, bound/free versus bound plot; Jurkat cells, CD3
T3 construct: whole, on cells; On cells CD3 stands as the full CD3/TCR complex; also called CD3 on Jurkat cells
T3 sequence (P07766 23-207): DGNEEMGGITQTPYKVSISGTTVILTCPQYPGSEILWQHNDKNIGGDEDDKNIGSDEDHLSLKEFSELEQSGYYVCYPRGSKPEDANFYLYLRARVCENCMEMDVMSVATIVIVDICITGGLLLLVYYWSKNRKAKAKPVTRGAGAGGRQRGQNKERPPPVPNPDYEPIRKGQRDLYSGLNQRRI
Protocol: as §1, §2

Kd (human CD19): 23 nM | EC50 [1]: 0.04 nM | Kd (human CD3): 9 nM
B1: W3438-T3U4.E17-1.uIgG4.SP (bispecific antibody)
light 1: DIVMTQSPDSLAVSLGERATINCKSSQSLLNSRTRKNYLAWYQQKPGQPPKLLIYWASTRQSGVPDRFSGSGSGTDFTLTISSLQAEDVAVYYCTQSHTLRTFGGGTKVEIKPDIQNPDPAVYQLRDSKSSDKSVCLFTDFDSQTQVSQSKDSDVYITDKCVLDMRSMDFKSNSAVAWSQKSDFACANAFQNSIIPEDTFFPSPESS
heavy 1: QVQLVQSGAEVKKPGSSVKVSCKASGFAFTDYYIHWVRQAPGQGLEWMGWISPGNVNTKYNENFKGRVTITADKSTSTAYMELSSLRSEDTAVYYCARDGYSLYYFDYWGQGTLVTVLEDLKNVFPPEVAVFEPSEAEISHTQKATLVCLATGFYPDHVELSWWVNGKEVHSGVCTDPQPLKEQPALQDSRYALSSRLRVSATFWQNPRNHFRCQVQFYGLSENDEWTQDRAKPVTQIVSAEAWGRYGPPCPPCPAPEFLGGPSVFLFPPKPKDTLMISRTPEVTCVVVDVSQEDPEVQFNWYVDGVEVHNAKTKPREEQFNSTYRVVSVLTVLHQDWLNGKEYKCKVSNKGLPSSIEKTISKAKGQPREPQVYTLPPCQEEMTKNQVSLWCLVKGFYPSDIAVEWESNGQPENNYKTTPPVLDSDGSFFLYSRLTVDKSRWQEGNVFSCSVMHEALHNHYTQKSLSLSLGK
light 2: DIQLTQSPSFLSASVGDRVTITCSASSTVNYMHWYQQKPGKAPKLLIYSTSNLASGVPSRFSGSGSGTEFTLTISSLQPEDFATYYCHQWSSYPYTFGQGTKLEIKRTVAAPSVFIFPPSDEQLKSGTASVVCLLNNFYPREAKVQWKVDNALQSGNSQESVTEQDSKDSTYSLSSTLTLSKADYEKHKVYACEVTHQGLSSPVTKSFNRGEC
heavy 2: QMQLVQSGPEVKKPGTSVKVSCKASGYAFTSYNMYWVRQARGQRLEWIGYIDPYNGDTTYNQKFKGRVTITRDMSTSTAYMELSSLRSEDTAVYYCLTTAYAMDYWGQGTLVTVSSASTKGPSVFPLAPCSRSTSESTAALGCLVKDYFPEPVTVSWNSGALTSGVHTFPAVLQSSGLYSLSSVVTVPSSSLGTKTYTCNVDHKPSNTKVDKRVESKYGPPCPPCPAPEFLGGPSVFLFPPKPKDTLMISRTPEVTCVVVDVSQEDPEVQFNWYVDGVEVHNAKTKPREEQFNSTYRVVSVLTVLHQDWLNGKEYKCKVSNKGLPSSIEKTISKAKGQPREPQVCTLPPSQEEMTKNQVSLSCAVKGFYPSDIAVEWESNGQPENNYKTTPPVLDSDGSFFLVSRLTVDKSRWQEGNVFSCSVMHEALHNHYTQKSLSLSLGK
notes: Bispecific, bivalent: one anti-CD3 arm with TCR constant domains and one native anti-CD19 Fab arm, IgG4 S228P Fc with knobs-into-holes; also called WBP3438; CD3×CD19 bispecific antibody; copies: 1 + 1 + 1 + 1
